Results as given in the Human Domainome abundance scans (Beltran et al. 2025).

B1: Homeobox protein cut-like 1, residues 548 to 629; numbered along this chain, P39880 (parent)
chain: GEEMDTAEIARQVKEQLIKHNIGQRIFGHYVLGLSQGSVSEILARPKPWNKLTVRGKEPFHKMKQFLSDEQNILALRSIQGR

Variants of: B1
Assay: abundance fitness (aPCA) (normalised: wild type 0, dead -1); higher = more abundant; growth selection in yeast, the domain comes from the species named
Conditions: Homo sapiens

Abundance fitness of substitutions, site by site:
E58: Y -0.166 | W -0.227 | N -0.27 | D -0.105 | C -0.441 | K -0.23 | M -0.132 | A -0.168 | S -0.252 | Q -0.047 | V -0.062 | G -0.35 | T -0.255 | I -0.234 | L -0.121 | R -0.273 | F -0.416 | P -0.819 | H -0.618
D69: R -0.207 | N -0.015 | Y -0.351 | H -0.182 | W -0.387 | A -0.174 | G -0.267 | L -0.318 | V -0.308 | P -0.75 | I -0.425 | M -0.231 | F -0.252 | K -0.108 | T -0.181 | E -0.134
S68: Y -0.297 | E 0.013 | L -0.088 | W -0.4 | D -0.02 | P -0.656 | M -0.083 | K -0.023 | R -0.157 | A -0.041 | F -0.187 | Q -0.049 | H -0.292 | C -0.133 | V -0.304 | T -0.122 | I -0.198
E70: V -0.154 | I -0.187 | D -0.043 | F -0.213 | L -0.307 | W -0.217 | A -0.026 | Q -0.047 | Y -0.152 | H 0.001 | M -0.139 | C -0.118 | G -0.126 | R -0.055 | T -0.121 | N -0.084 | P 0.026 | S -0.083
Q71: G -0.037 | S 0.047 | N -0.099 | R -0.049 | Y -0.257 | D -0.035 | M -0.137 | F -0.204 | E 0.06 | I -0.212 | H -0.16 | V -0.2 | P -0.673 | C -0.11 | W -0.293 | T -0.011
V54: Q 0.064 | L 0.028 | C -0.063 | P 0.036 | D 0.052 | Y -0.033 | R -0.028 | N 0.08 | S -0.033 | F -0.094 | T 0.03 | K 0.058 | I -0.001 | A 0.066 | M 0.119 | W -0.173 | G -0.04 | E 0.136
K64: N -0.225 | C -0.273 | L -0.064 | P -0.917 | A -0.028 | V -0.023 | M -0.061 | W -0.24 | S -0.154 | T -0.287 | Q 0.033 | E -0.167 | H -0.216 | D -0.489 | F -0.15 | R -0.049 | Y -0.112 | G -0.43
N72: G -0.04 | C -0.098 | D -0.221 | A 0.049 | R -0.137 | Q 0.03 | W -0.131 | H -0.063 | T -0.115 | I -0.289 | M -0.132 | V -0.315 | F -0.143 | P -0.432 | K -0.007 | L -0.251 | Y -0.099
H61: A -0.07 | V 0.009 | F 0.069 | Y 0.067 | N -0.11 | K 0.013 | L 0.071 | S -0.137 | W -0.03 | G -0.342 | C -0.134 | Q 0.04 | R 0.014 | E 0.021 | I 0.075
I73: L -0.064 | D -0.745 | A -0.019 | C -0.129 | H -0.5 | M -0.064 | F -0.026 | G -0.44 | E -0.637
F60: W 0.035 | A -0.944 | M -0.536 | S -0.869 | Q -0.761 | P -0.897 | C -0.762 | G -0.952 | E -0.799 | D -0.803 | V -0.911 | Y 0.019 | T -0.835 | I -0.306 | R -1.01
K62: Y -0.522 | N -0.532 | F -0.603 | V -0.307 | L -0.12 | R -0.126 | C -0.413 | I -0.16 | T -0.305 | A -0.201 | M -0.231 | W -0.749 | P -0.989 | G -0.729 | S -0.443 | E -0.506
R55: Y -0.096 | K 0.066 | T 0.007 | D 0.027 | Q 0.067 | W -0.095 | A 0.075 | S 0.004 | G -0.011 | L -0.04 | V -0.06 | N -0.142 | F -0.041 | P -0.159 | E 0.135 | M -0.028 | I -0.148 | C -0.051 | H 0.077
L67: Y -0.609 | S -1.01 | I -0.303 | G -0.848 | F -0.341 | M -0.284 | N -0.582 | D -0.876 | Q -0.978 | C -0.498 | K -0.918 | V -0.243 | R -0.979 | H -1.21 | W -0.817 | A -0.736
Q65: T -0.029 | M -0.056 | V -0.117 | R -0.039 | A -0.02 | N 0.022 | F -0.446 | C -0.172 | P -0.933 | G -0.232 | L -0.082 | I -0.096 | K -0.076 | W -0.201 | E 0.053 | S -0.059 | Y -0.169
K57: P -0.663 | I -0.284 | Y -0.528 | G -0.525 | C -0.393 | T -0.408 | N -0.601 | S -0.334 | L -0.288 | W -0.526 | V -0.455 | A -0.2 | M -0.152 | R 0.013 | E -0.476 | Q 0.057 | H -0.426 | F -0.742
P59: S 0.076 | L 0.133 | Y 0.025 | R 0.023 | W 0.077 | G -0.024 | E 0.101 | C 0.1 | M 0.078 | T 0.088 | A 0.091 | K -0.034 | N 0.113 | D 0.047 | H 0.025 | F 0.052 | Q 0.078 | I 0.099
T53: W -0.566 | Y -0.821
M63: P -0.797 | H -1.13 | D -0.949 | I -0.31 | T -0.777 | W -1.02 | L -0.423 | Y -0.94 | F -0.753 | G -1.04 | N -1.16 | R -1 | A -0.677 | V -0.886 | E -0.872 | K -0.992
F66: I -0.573 | R -1.04 | G -0.934 | Q -0.791 | H -0.966 | K -0.829 | P -0.77 | C -0.963 | M -0.648 | N -0.781 | E -0.887 | W 0.116 | A -0.758 | S -0.829 | L -0.662 | Y -0.924
G56: F -0.224 | L -0.098 | I -0.282 | Y -0.313 | V -0.343 | T -0.333 | M -0.143 | P -0.697 | N -0.22 | E 0.085 | H -0.352 | R -0.711 | C -0.279 | Q 0.077 | D 0.036 | W -0.265 | K -0.595 | S -0.254
